Measurements as given in a protein production outcome set (Wang et al. 2014).

assay: label from the status in PepcDB records
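Note: failed if final PepcDB status was selected cloned or expressed and not failed if soluble or beyond.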

| Sequence | protein production |
| --- | --- |
| MNINGIKLLSSRAVSKLGDVFYDYGNSTWIASMGGLGQKILGIYQIVELLVSIVLNPFGGALADRFQRRKILLITDAICAIMCFLLSFIGDDKVMVYGLIVANAILAVSNAFSSPAYKSYIPEIVDKADIITYNANLETIVQIISVSSPVLGFLIFNNFGIRITLIVDAITFLISFLFLYAIKVERVQLSKQEKVAIKNILADIADGFTYIKKEKEIMFFLIIAALLNTFLAMFNYLLPFTNSLLKTSGAYATILSISAIGSIIGALIARKIKSSINSMLSMLVFSSLGVIVMGFPSLFELPIWIPYSGSFLFNSLLTMFNIHFFSQVQIRVDEAYMGRVMSTIFTIAIMFMPIGTLFMTIFSFALSNVSFIVIGCAIAILGGLGFSYSKKQF | failed |
| MNINVAELLNGNYILLLFVVLALGLCLGKLRLGSIQLGNSIGVLVVSLLLGQQHFSINTDALNLGFMLFIFCVGVEAGPNFFSIFFRDGKNYLMLALVMVGSALVIALGLGKLFGWDIGLTAGMLAGSMTSTPVLVGAGDTLRHSGMESRQLSLALDNLSLGYALTYLIGLVSLIVGARYLPKLQHQDLQTSAQQIARERGLDTDANRKVYLPVIRAYRVGPELVAWTDGKNLRELGIYRQTGCYIERIRRNGILANPDGDAVLQMGDEIALVGYPDAHARLDPSFRNGKEVFDRDLLDMRIVTEEVVVKNHNAVGKRLAQLKLTDHGCFLNRVIRSQIEMPIDDNVVLNKGDVLQVSGDARRVKTIADRIGFISIHSQVTDLLAFCAFFVIGLMIGMITFQFSTFSFGMGNAAGLLFAGIMLGFMRANHPTFGYIPQGALSMVKEFGLMVFMAGVGLSAGSGINNGLGAIGGQMLIAGLIVSLVPVVICFLFGAYVLRMNRALLFGAMMGARTCAPAMEIISDTARSNIPALGYAGTYAIANVLLTLAGTIIVMVWPGLG | failed |
| MNIQIILSLIFSMILMACTTSSPQKDLSRICDSSGCSDRSGNYVSNHSSAASSDEEARIRVLEDVARQDPRAAYDLGLRYFRGDGVRQDSYQALQWMREAAERGDLNAQKALGRLYLTGLEEMGADYREAEKWLRIAASRGDKESEQLLVEAAAFASEERRSGEIYHRWVNRWQPVFYQRWYYGYPYLGTWRGNYWYY | failed |
| MNIRHIRNATAVIEYGGKRILIDPMLSDKGSFDPFPNSPRQDQKNPLVELPMAIEDIINDIDLVILTHLHIDHFDPKAIEVLPKDIKIYAQNEEDASEVERYGFTNVSVFNDVTHIGEIELIKTDAQHGHGEILKMTGHVHGMILKHSEEPTLYLAADTVWFEGVEKALKTYQPDVVVLNGGANQFFEGGPLVMDEHDVLKVANTLPLAQIVVVHMEAVNHWHLSRKELNEFINSNDLGNRVVVPNDGELLTFEK | failed |
| MNIRRARPDDLMNMQHCNLLCLPENYQMKYYFYHGLSWPQLSYIAEDEDGKIVGYVLAKMEEDPDDVPHGHITSLAVKRSHRRLGLAQKLMDQASRAMIENFSAKYVSLHVRKSNRAALHLYSNTLNFQVSEVEPKYYADGEDAYAMKRDLSQMADELRRQLVLKKGRYVVLGSKENQGSTLPGSEEASQQENLAGGDSGSDGKDSTDVQDSLQTLGSAS | failed |
| MNITLGYIDPVAFSLGPIQVRWYGIIIACGILLGYFIAQAALKQVGLHKDTLIDIIFYSAIVGFIVARIYFVTFQWPYYMNHLSEIPKIWHGGIAIHGGLIGGLISGIIVCKIKNLHPFQIGDIVAPSIILAQGIGRWGNFMNHEAHGGPVSRAFLEHLHLPDFIIRNMYIEGQYYHPTFLYESIWDVIGFVILITLRKRLKLGETFFGYLIWYSVGRFFVEAMRTDSLMLTSHIRVAQLVSVVLILISVIFVIYRRVKYQPIKYENSGPLTWPIKKAK | failed |
| MNITLLKSKIHRASVTEARLDYIGSISIDEKLLQASGILEYEKVQVVNVNNGARFETYTIATQEEGVVCLNGAAARLAEVGDKVIIMSYADFNEEEAKTFKPKVVFVDENNTATKITNYEKHGAIF | not failed |
| MNITVNDRECSAQVGDRLLDIARANHSHIGYFCGGNAICQTCYVRVLEGAELLSPMSDAEKAMLSDKLIKEGTRMACQTLIEKPGKITVLSEVEAAKRLTLENPLQLPAYMGKMGWEAAVKFTDTIAFQARREQGEHALEPTQLLHDVAAAISDAIQLVFNAVQAAFGVNRSTDKPEIKADKGCGCDTTLLAKTATCDNGHGRIVSPEVLQLHQERSAVCN | failed |
| MNIVENEICIRTLIDDDFPLMLKWLTDERVLEFYGGRDKKYTLESLKKHYTEPWEDEVFRVIIEYNNVPIGYGQIYKMYDELYTDYHYPKTDEIVYGMDQFIGEPNYWSKGIGTRYIKLIFEFLKKERNANAVILDPHKNNPRAIRAYQKSGFRIIEDLPEHELHEGKKEDCYLMEYRYDDNATNVKAMKYLIEHYFDNFKVDSIEIIGSGYDSVAYLVNNEYIFKTKFSTNKKKGYAKEKAIYNFLNTNLETNVKIPNIEYSYISDELSILGYKEIKGTFLTPEIYSTMSEEEQNLLKRDIASFLRQMHGLDYTDISECTIDNKQNVLEEYILLRETIYNDLTDIEKDYIESFMERLNATTVFEGKKCLCHNDFSCNHLLLDGNNRLTGIIDFGDSGIIDEYCDFIYLLEDSEEEIGTNFGEDILRMYGNIDIEKAKEYQDIVEEYYPIETIVYGIKNIKQEFIENGRKEIYKRTYKD | failed |
| MNIVTLLGSPRSRGISAAIAARFTDTAAGLGAQTRTFELNRLAYRGCQGCYACKKTLDHCVLTDDLAQVLDAVRGADVVVLASPVYYGDVTAQLKGFIDRTFSYLKPDYLSNPQPSRLSPKKLVFVLTQGHPDEGMFADIFPRYEGFLTWLGFVDARLIRACGFGPSTVDKVPEQYLREAEQAAREIVGQGKG | failed |
| MNKDFTFTIKSSCFDENYNPSENTRITTNFANLARGKSRQENLRNTLVMMDNRFNTLAYWDNPKANRYSVELEIISVEIDIEGNGDTFPAIEILKTNIVDKKTNERIEGIVGNNFSSYVRDYDFSVLLPEHNKSHPGFSTPDNFGDLHGKLFKCFTNSKFYKDNFNKQPVICLSVSSKNTYHRTGNQHPVLGIEYQQNEPSLTDHYFERMGLQARYFMPANSVAPLAFYFSGDLLNDYTNLELISTISTMETFQKIYRPEIYNANSAAGQYYQPNLNNQDHSLTKIVYDRVERSQLAIEQGKFTEEHFIKPYKNILEQWSAHYAR | not failed |
| MNKEALVNRLNASAKRQKADIVIKNGKIMDVYNQEWIYEDIAITDGVIVGLGEYEGENIIDAEGQMIVPGFIDGHVHIESSMVTPIEFAKAVLPHGVTTVVTDPHEIANVSGEKGIEFMLEQARHTPLNIHFMLPSSVPAASFERSGAILKAADLKPFYEEEEVLGLAEVMDYVSVQQAEKDMVQKLLDARVAGKRIDGHLAGLSTDLINIYRTAFVLNDHEVTSKEEALDRIRRGMYVMMREGSVAKNTLNVLPAVNEKNRTPVFFCTDDKHVDDLLSEGSVNHQVKMAIQAGLNPFLAYQLGSLNAAECYGLDTKGAIAPGFDADLLFVSDLENVTVTMTMVKGQTVAEDSKAVYQDHASTAAPDQALLDSVKLAAPLNKQDFHMPIDSEQQINVIQIIPNQLETRLVQVPAPVAREFEPDTELDLLKIAVVERHKGLKETGLGVVKGFGFKSGAIATTISHDSHNIIAVGTNDEDIAAAVNKLQEIGGGLTIIKNGEELHSVPLPIAGLLSDQSAEQVNQSLLTLHDKLSLIGFTGGFNPFLTLSFLALPVIPDIKMTTTGLFDVKSFQHISLQLEHHHHHH | not failed |
| MNKEEQEDPQQEQISTVQENDPRNLQQLGMLLVSPGLDEDRLSEKMISKIKKSRDIEKNQKLLISRLSQKEEDHSGKPPTITTSPAEKTVPFKSLNHSLKRKRVPPALNFSDIQASSHLHGSKSAPPNITRFPQHKNSLRVRYMGRMAPTNQDYHPSVANSYMTATYPYPYTGLPPVPCYPYSSTPTQTHAYEGYYSPMYPGPLYNNGIIPADYHAKRKKLAGRSPHLEDLTSRKRTFVSKHHNGDPIISKTDEDIECSVTKNSLSEGASLNDDADDDNDKERIIIGEISLYDDVFKFEVRDDKNDYMKACETIWTEWHNLKK | failed |
| MNKFIKYFLILLSFGLLVVPIIFATQLYQSSESAFESSQNTKDSQRKSTLRDSKVDPEKQPISILFLGIDDNEGREKNGQSVEHSRSDAMILSTFNQKKHQIRMLSIPRDTISYIPKVGYYDKITHAHAYGGPLAAMDSVEATMNVPVDYYVRINMKAFVEAVDELGGIYYDVPYNLNEPNSDDTGRIKIKKGYQKLNGDQALAVARTRHHDSDLKRGQRQMELIKILFQKAQNLKSIDKLDNVISIVGKNAKHNLTQKEIKSLAKMYLGGSTEIKTSQLKGKDDYLNDIYYYHPSVKSIMEYSNLLRNDLDLSKITNKNDFLDQRVIKRYGSLVPLTELDEDLLRKNQKESTDSQKESDSSSQNNDEEDQTNEQTDQNSLNGNEQYPNQQDNNQTNGENGMINNDNYPYAQ | failed |
| MNKKRMIAMVSTALLVTGCAEVGNAQTVAVENSGQSVQKNIVKSIQSQANPLKTIEPSKPFEDLKPLKKMIGNAQYVGLGENTHGSSEIFTMKFRLVKYLVTEMGFTNFAMEEDWGNGLKLNEYIQTGKGNPREFLKLLYPTDEIIAMIEWMKDYNADPSNKKKIQFIGLDLKALDQGSFNKVIDYVRLHRPDLLAEVEENYKELSSFTGSIQEYMKLTPKLKEKFKANAERVARLLKDENEQANTEIIPSEYIWAKATASAIEKFTTMLLPNDYPSIIKLHEQYLADHAMWAQETFGGKTMVWAHNIHIAKGIIDEKLYPYVAGQFLKERLDNNYVTIGSTTTEGNFTLYSEYNPSTGGKITTDTIPQDVKSFNYTLGKVPYKMFLLDNRHLKGQAEKWVKAKRPLLSIGGQILPNSSVYFDTSLLEQFDIIFHIRKTSPSHIKLEHHHHHH | not failed |
| MNKNILFLSLMALPVFAFAENNLVLPTITVSAEQQVQSYAADRLNKQAALGSLGEKSVLDTPFSLVSYSDVMIRDQQASTVSEVLRADPSIRETTNAGHLNENLQIRGFTVGFEDYNINGLYGMSPSGRIPTDILDHVTLLEGPNALVAGMAPAGSVGGVVMAQTKRATKDL | failed |
| MNKNTWIIGFTLFAMFFGAGNLIFPTQLGLESGHFFWPAILAFALTGIGLPLLGVVVGALDKHGYIGSFNKISPRFSLIFLIIIYLTIGPLFAIPRTASTSFEMSVTPIAQNSGNLALFIFTVIYFLIVLYLCLNPNKMIDRIGSLLTPLLLITIVAMIIKGFVDFSGHSSNYGMTNAYHSNLSGFSQGFTQGYLTMDAIASIAFSMIVVNAIKTTGIQHADKIFKQTIIAGLIAAIALVFIYISLGYIGNHINIPSDTLKELKAKDQNIGTYLLTTMATKGFGTFGKYLLGIIVSLACLTTACGLIVSVSEYFHRILPKIPYKVFVIFFILVSFILANQGLNSVIKMSVPVLSVIYPVAITVILLILIARFIPTKRIAQQIPLIIVAIESILSLITTQGWIRISFIDDLPLKEYSLEWFPIAVVATLVGYMISYFVKQSNIVYQKE | failed |
| MNKQIDLPIADVQGSLDTRHIAIDRVGIKAIRHPVVVADKGGGSQHTVAQFNMYVNLPHNFKGTHMSRFVEILNSHEREISVESFEEILRSMVSRLESDSGHIEMAFPYFINKSAPVSGVKSLLDYEVTFIGEIKHGNQYSFTMKVIVPVTSLCPCSKKISDYGAHNQRSHVTISVRTNSFIWIEDIIRIAEEQASCELYGLLKRPDEKYVTERAYNNPKFVEDIVRDVAEVLNHDDRIDAYIVESENFESIHNHSAYALIERDKRIR | not failed |
| MNKRCEEVLRRYFAEVPFIIEKACELAESMLGEGSHGLSHTIRVLDLALQIGRVEGANLEVLALAAILHDIARPLEDKGRIKDHAQEGARIVRSFLSKLRYPHVDEVAHAIEAHRFSTNIEPRTLEAKILSDADKIDALGAIGIARVFMYAGEKGRSIEDSIKHFEEKILRLKDLMYTETGKRIAQERHKIVEEFVNILKKELILEHHHHHH | not failed |
